# Measured values taken from the nanobody polyreactivity screen of Harvey et al. (2022).
# Assay: yeast display, Sf9 membrane polyspecificity reagent, FACS + sequencing; frameworks hold sequencing errors
# Summary of the method: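 A synthetic nanobody library was expressed on Saccharomyces cerevisiae BJ5465 by galactose induction for 36–48 hours. The library was stained for 1 hour at 4 °C with 10% biotinylated, detergent-solubilized Sf9 membrane reagent and enriched with streptavidin microbeads before FACS. Low and high (top ~1%) gates were set on anti-HA fluorescence for expression and streptavidin fluorescence for reagent binding, and each polyreactivity label reflects the gate of origin.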
row,Sequence,polyreactivity (PSR sort gate)
1,QVQLVESGGGLVQAGGSLRLSCAASGSTFSRNAMGWYRQAPGKERELVATISWRGGSTYYADSVKGRFTISRDNAKNTVYLQMNSLKPEDTAVYYCATLHRPAYYYWGQGTQVTVSS,high polyreactivity
2,QVQLVESGGGLVQAGGSLRLSCAASGSTFSRYAMGWDRQAPGKEMELVAAISSSGGGTYYADSVKGRFTISRDNAKNTVYLQMNSLKPEDTAVSYCAAKRVHGATGYWGQGTQVTVSS,high polyreactivity
3,QVQLVESGGGLVQAGGSLRLSCAASGSTFSRYAMGWSRQAPGKERELVAVITGSGGSTYYADSVKGRFTISRDNAKNTVYLQMNSLKPEDTAVYYCNAVYFALSPQYYWAASDYWGQGTQVTVSS,high polyreactivity
4,QVQLVESGGGLVQAGGSLRLSCAASGSTFSRYAMGWYRPAPGKERELVAAISYSGDSTYYADSVKGRFTISRDNAKNTVYLQMNSLKPEDTAVYYCNVYSHYRGYYWGQGTQVTVSS,high polyreactivity
5,QVQLVESGGGLVQAGGSLRLSCAASGSTFSRYAMGWYRQAPGKERELVAAISSRGGSTYYADSVKGRFTISRDNAKNTVYLQMNSLKPEDTAVYYCNALTSYQNHVYPYDYWGQGTQVTVSS,high polyreactivity
6,QVQLVESGGGLVQAGGSLRLSCAASGSTFSRYAMGWYRQAPGKERELVAAISSSGGSTYYADSVKGRFTISRDNAKNTVYLQMNSLKPEDTAVYYCAARYYGVTRGYNYWGQGTQVTVSS,high polyreactivity
7,QVQLVESGGGLVQAGGSLRLSCAASGSTFSRYAMGWYRQAPGKERELVAAISWGGNTYYADSVKGRFTISRDNAKNTVYLQMNSLKPEDTAVYYCNRYSKLYNTMDYWGQGPQVTVSS,high polyreactivity
8,QVQLVESGGGLVQAGGSLRLSCAASGSTFSRYAMGWYRQAPGKERELVAAITYRGARTYYADSVKGRFTISRDNAKNTVYLQMNSLKPEDTAVYYCNTVPPPYNFRYGYWGQGTQVTVSS,high polyreactivity
9,QVQLVESGGGLVQAGGSLRLSCAASGSTFSRYPMGWSRQAPGKERELVAAISWGGNTYYADSVKGRFTISRDNAKNTVYLQMNSLQPEDTAVYYCNRYSKLYNTMDYWGQGTQVTVSS,high polyreactivity
10,QVQLVESGGGLVQAGGSLRLSCAASGSTFSSLIMGWYRQAPGKERELVAAISRSGGRTYYADSVKGRFTISRDNAKNTVYLQMNSLIPEDTAVYYCAADYVSVDRIRYGYCGQGTQVTVSS,high polyreactivity
11,QVQLVESGGGLVQAGGSLRLSCAASGSTFSSYAMGWYRQAPGKEREIVADINGSGGRTYYADSVKGRFTISRDNAKNTVYLQMNSLKPEDTAVYYCIAYYLQGEYYTEDYWGQGTQVTVSS,low polyreactivity
12,QVQLVESGGGLVQAGGSLRLSCAASGSTFSTNARGWYRQAPGKERELVAAINWSTGSTHYADSVKGRFTISRDNAKNTVYLQMNSLKPEDTAVYFCAAEGPKQYDYWGQGYQVTVSS,low polyreactivity
13,QVQLVESGGGLVQAGGSLRLSCAASGSTFSTYAMGWYRQAPGKEREFVAAIRWSGGSTYYADSVKGRFTISRDNAKNTVYLQMNSLKREHTAVYYSAKGIRRWYGGCDYWGQGTKVTVSS,low polyreactivity
14,QVQLVESGGGLVQAGGSLRLSCAASGSTFSTYAMGWYRQAPGKERELVATISKRGGSTYYADSVKGRFTISRDNAKNTVYLQMNSLKAEDTAVYYCDARWQWLNGYYYWGQGTQVSVSS,high polyreactivity
15,QVQLVESGGGLVQAGGSLRLSCAASGSTFSVNAMGWYRQAPGKEREFVARITWRGGSTYYADSVKRRFTISRDNAKNTVYLQMNSLKPEDTAVYYCAATLRYWWRSSYEDYYWGQGTQVTVSS,low polyreactivity
16,QVQLVESGGGLVQAGGSLRLSCAASGSTFSVYALGWYRPAPGKERELVAVISSTDDSTYYADSVKGRFTISRDNAKNTVYLQMNSLKPEDTAVYYCAAPDDTTGYDYYYWGQGTQVTVSS,low polyreactivity
17,QVQLVESGGGLVQAGGSLRLSCAASGSTFSVYAMGWYRQAPGKERELVAAISTSGGSTYYADSVKGRFTISRDNAKNTVYLQMNSLKTEDTAVYYCNAEYSGYIYPYSYPIYYWYDYWGQGTQVTVSS,high polyreactivity
18,QVQLVESGGGLVQAGGSLRLSCAASGSTFSVYAMGWYRQAPGKERELVAAISWSGGSTYYADSVKGRFTISRDNAKNTVYLQMNSLKPEDTAVYYCNATVTYYRYYAYVRRYYWGQGTQVTVSS,high polyreactivity
19,QVQLVESGGGLVQAGGSLRLSCAASGSTFSWYAMGWYRQAPGKERELVAAISYSGGTYYADSVKGRFTISRDNAKNTVYLQMNSLKPEDTAVYYCAALRTRYGYDYWGQGTQVTVSS,high polyreactivity
20,QVQLVESGGGLVQAGGSLRLSCAASGSTFSWYVMGWYRQAPGKERELVAAITRGGGSTYYADSVKGRFTISRDNAKNTVYLQMNSLKPEDAAVYYCNADPGFRSGDYGYSSFDYWGQGTQVTVSS,low polyreactivity
21,QVQLVESGGGLVQAGGSLRLSCAASGSTFSYAMGWYRQAPGKERELVAAITIGGRTSYADSVKGRFTISRDNAKNTVYLQMNSLNPEDTAVYYCAADDLPGMDYWGQGSQVTVSS,low polyreactivity
22,QVQLVESGGGLVQAGGSLRLSCAASGSTFSYMGWYRQAPGKERELVAAISYRGGRTYYADSVKGRFTISRDNAKNTVYLQMNSLTPEDTAVYYCNADGGRTYYSRYDYWGQGTQVTVSS,low polyreactivity

row,Sequence,polyreactivity (PSR sort gate)
1,QVQLVESGGGLVQAGGSLRLSCAASGSTFSYNAMGWYRQAPGKERELVAAIDRSVSTNYADSVKGRFTISRDNAKNTVYLQMNSLKPEDTAVYYCNARHPTDDIVIYDYWGQGTQVTVSS,low polyreactivity
2,QVQLVESGGGLVQAGGSLRLSCAASGSTFSYNAMGWYRQAPGKERELVAAISRGGITNYADSVKGRFTISRDNAKNTVYLQMNSLKPEDTAVYYCNAGYLGGPSYEYWGQGTLVTVSS,low polyreactivity
3,QVQLVESGGGLVQAGGSLRLSCAASGSTFSYNAMGWYRQAPGKERELVAAITSSGSSTYYADSVKGRFTISRYNAKNTVYLQMNSMKPEDTAVYYCNAEVLFVAGQVQRNSGDYWGQGTEVTVSS,low polyreactivity
4,QVQLVESGGGLVQAGGSLRLSCAASGSTFSYSTMVWYRQPPGKERELVATISRRGASTYYADSVKGRFTISRDNAKNTVYLQMNSLKPEDTAVYYCAKSYYYGRSATRPEYDYWGQGTQVTVSS,high polyreactivity
5,QVQLVESGGGLVQAGGSLRLSCAASGSTFSYYAMGWYRQAPGKEWEFVAAISRSGGRTYYADSVKGRFTISRDNAKNTVYLQMNSLKPEDTAVYYCATVYYYDFSRTHPWPGDYWGQGTQVTVSS,high polyreactivity
6,QVQLVESGGGLVQAGGSLRLSCAASGSTFSYYNMGLYIQATGKERELLAAINRRGDSTYADSVKWRFTISRDNAKNTVYLQMNSLKPEDTAVYDCAADASVGVSGMDYWGQGTQVTVSS,low polyreactivity
7,QVQLVESGGGLVQAGGSLRLSCAASGSTFSYYVMGWYRPAPGKERELVAAISGSGGSTYYADSVKGRFTISRDNAKNTVYLQMNSLKPEDTAVYYCDANDGSEYDYWGQGTQVTVSS,high polyreactivity
8,QVQLVESGGGLVQAGGSLRLSCAASGSTFSYYVMGWYRQAPGKERELVAAISGSGGSTYYSDSVKGRFTISRDNAKNTVYLQMNSLKPEDTAVYYCAANDGSEYDYWGQGTQVTVSS,high polyreactivity
9,QVQLVESGGGLVQAGGSLRLSCAASGSTFTAYAMGWYRQAPGKERELVAAISKRSGGTYYADSVKGRFTISRDNAKNTVYLQMNSLKPEVTAVYYCGQGTQVTVSS,low polyreactivity
10,QVQLVESGGGLVQAGGSLRLSCAASGSTFTAYAMGWYRQAPGKERELVAAITSSGGGTYYADSVKGRFTISRDNAKNPVYLQMNSLKPEDTAVYYCAAVPGYGYYNYSDFDYWGQGTQVTVSS,low polyreactivity
11,QVQLVESGGGLVQAGGSLRLSCAASGSTFTDNAMGWYRQAPGKERELVAAITSGSSTNYADSVKGRFTISRDNAKNTVYLQMNSLKPEDTAVYYCATCQEPQYSTGDYWGQGTQVTVSS,low polyreactivity
12,QVQLVESGGGLVQAGGSLRLSCAASGSTFTDYAMGWYRQAPGKERELVAAITDSGGRTYYADSVKGRFTISRDNAKNTVYLQMNSLKPEDTAVYYCATEDDRWYYWGQGTQVTVSS,high polyreactivity
13,QVQLVESGGGLVQAGGSLRLSCAASGSTFTDYDMGWYRQAPGKERELVAAITSGGSTNYADSVKGRFTISRDNAKNTVYLQMNSLKPEDTAVYYCAAADADRKYDYWGQGTQVTVSS,low polyreactivity
14,QVQLVESGGGLVQAGGSLRLSCAASGSTFTFNAMGWSRQAPGKDRELVAAIRWSTGGTYYADSVKGRFTISRDNAKNTVYLQMNSLKPEDTAVYNCAAQFVPYFYFSKYDYWGQGTQVTVSS,low polyreactivity
15,QVQLVESGGGLVQAGGSLRLSCAASGSTFTGNAMAWYRQAPGKERELVAAISRSGGSTFYADYVKGRFTISRDNAKNTVYLQMNSLKPEDTAVYYCATRYVVDMDYWGQGTQVTVSS,high polyreactivity
16,QVQLVESGGGLVQAGGSLRLSCAASGSTFTGYAMGWSRQAPGKEREIVATITKRGGRTYYADSVKGRFTISRDNAKNTVYLQMNSLKPEDTAVYYCARDQGKLVVPYAYWGQGTQVTVSS,high polyreactivity
17,QVQLVESGGGLVQAGGSLRLSCAASGSTFTGYAMGWYRQAPGKERELVAAISRSGGSTSYADSVKGRFTISRDNAKNTVYLQMNSLKPEDTAVYYCAAQVQGTTRAKQRGGIGELDYWGQGTQLTVSS,low polyreactivity
18,QVQLVESGGGLVQAGGSLRLSCAASGSTFTGYAMGWYRQAPGKERELVAAISRSVGRTYYADSVKGRFTISRDNAKNTVYLQMNSLKPEDTAVYYCAADVYLTGSRNYYWGQGTQVTVSS,high polyreactivity
19,QVQLVESGGGLVQAGGSLRLSCAASGSTFTGYAMGWYRQAPGKERELVAAITRGGSTYYADSVKGRFTISRDNAKNTVYLQMNSLKPEDTAVYYCAAKPSSREPTGPRYYYWGQGTQVTVSS,high polyreactivity
20,QVQLVESGGGLVQAGGSLRLSCAASGSTFTGYTMGWYRQAPGKERELVAAITYRGGSTYYADSVKGRFTISRDNAKITDYLQMNSLIPEDTAVYYCAAVPEYYEYSPYDYWGQGTQVTVSS,low polyreactivity
21,QVQLVESGGGLVQAGGSLRLSCAASGSTFTGYTMGWYRQAPGKERELVAAITYRGGSTYYADSVKGRFTISRDNAKNTVYLQMNSLKPEDSAVYYCAAVAVYYEYSPYDYWGQGTQLTVSS,low polyreactivity
